Assay results from paper PMC8908544 (Structure (London, England : 1993), 2022).

B1: NB1A7 (VHH)
VHH: QVQLQESGGGSVQAGGSLRLSCAASGYTFSSYCLGWFRQAPGKEREGVAAIDSDGSTSYADSVKGRFTISRDNAKNTLYLQMNSLKPEDTAMYYCAAEGGPSLSYCTGGYGFLLSGLMYNSWGQGTQVTVSS
B2: NB1B11 (VHH)
VHH: QVQLQESGGGSVQAGGSLRLSCAASGYTVSVGCMAWFRQAPGKEREGVAGIDASGITKYSDSVKGRFTISKDNAKNALDLQMNGLKPEDTAMYHCAAGLVRGSCTDVLDHPSYLGVWGQGTQVTVSS
B3: NB1C6 (VHH)
VHH: QVQLQESGGGSVQAGGRLRLSCAASGDTYSSYCMGWFRQAPGKEREGVAAIYIGGDNTYYADSAKGRFTISQDYDKNTAYLQMNSLKSEDTAMYYCAAELFCPWPDIGTMSPAEYKYWGQGTQVTVSS
B4: format II: bi-paratopic and multivalent nanobody NB1A7-(GGGGS)4-NB1B11-Fc (bispecific antibody)
chain: QVQLQESGGGSVQAGGSLRLSCAASGYTFSSYCLGWFRQAPGKEREGVAAIDSDGSTSYADSVKGRFTISRDNAKNTLYLQMNSLKPEDTAMYYCAAEGGPSLSYCTGGYGFLLSGLMYNSWGQGTQVTVSSGGGGSGGGGSGGGGSGGGGSQVQLQESGGGSVQAGGSLRLSCAASGYTVSVGCMAWFRQAPGKEREGVAGIDASGITKYSDSVKGRFTISKDNAKNALDLQMNGLKPEDTAMYHCAAGLVRGSCTDVLDHPSYLGVWGQGTQVTVSSGGGGS

Legend:
SARS-CoV RBD (306-527) = SARS-CoV RBD (306-527) (SARS-CoV, UniProt P59594 306-527); test: BLI
[1] = target: T1, receptor binding domain (RBD) of SARS-CoV-2 spike protein (SARS-CoV-2, UniProt P0DTC2 333-523); test: BLI
[2] = target: T1, receptor binding domain (RBD) of …; test: ELISA

Binder	Kd (SARS-CoV RBD (306-527)) [nM]	Kd [1] [nM]	IC50 [2] [nM]
B1	471		
B2		6.76 ± 0.027	709
B3		5.07 ± 0.05	
B4		< 0.001	37.5
